# Experimental data published in patent US20100119588A1.
# No end group written: not given here.
# B1: e-1 peptide, chemosynthesized, …-NH2 (peptide)
# peptide: ARLPPTMVRPNGPQP-NH2
# B2: s-2 peptide, chemosynthesized, …-NH2 (peptide)
# peptide: ARLPRTMVHPKPAQP-NH2
# B3: A-1 peptide, chemosynthesized, …-NH2 (peptide)
# peptide: ARLSPTMVHPNGAQP-NH2
# B4: filamentous phage fd presenting peptide s-2 (SEQ ID NO: 3) (peptide)
# chain: ARLPRTMVHPKPAQP
# modifications: not checked
# Legend:
# [1] = biological target: hemagglutinin (HA) of influenza virus type A subtype H3 A/Wuhan/359/95 (H3N2), ether extract (influenza virus type A, A/Wuhan/359/95 (H3N2))
# [2] = biological target: hemagglutinin H3 (GM3 inhibition ELISA, strain not stated)
# [3] = biological target: hemagglutinin (HA) of influenza virus type A subtype H3 A/Wuhan/359/95 (H3N2), ether extract (influenza virus type A, A/Wuhan/359/95 (H3N2)); assay: phage ELISA, HA immobilised on plate, normalised to A-1 = 1
# [4] = biological target: hemagglutinin (HA) of influenza virus type A subtype H1 A/PR/8/34 (H1N1), ether extract (influenza virus type A, A/PR/8/34 (H1N1)), P03452; assay: as above
binder,measurement,setting,value
B1,fold binding relative to A-1,[1],1.2 fold
B2,fold binding relative to A-1,[1],2.1 fold
B3,IC50,[2],1.9 mM
B4,fold binding activity relative to A-1,[3],3 fold
same,fold binding activity relative to A-1,[4],3 fold
